For series [1], the target named is bat star (Patiria miniata) DGCR8 heme-binding domain, HBD-His6 (Patiria miniata (bat star)). Put plainly: SEC; size exclusion chromatography, last step of the purification; SEC buffer 400 mM NaCl, 20 mM Tris pH 8.0, 1 mM DTT; elution volumes compared (bat star HBD 13.8 mL; human HBD dimer; human NC9 monomer 2.6 mL later).
Series [2] deals with the molecule itself. The description is as above.

“bat star (Patiria miniata) DGCR8 heme-binding domain, HBD-His6 (domain or fragment)”: the stoichiometry N (in general, a count of units in the complex or per binding partner) in series [1] stood at 2.

B1: human DGCR8 heme-binding domain, HBD-His6 (domain or fragment, UniProt Q8WYQ5 276-498, looked up)
chain: DGETSVQPMMTKIKTVLKSRGRPPTEPLPDGWIMTFHNSGVPVYLHRESRVVTWSRPYFLGTGSIRKHDPPLSSIPCLHYKKMKDNEEREQSSDLTPSGDVSPVKPLSRSAELEFPLDEPDSMGADPGPPDEKDPLGAEAAPGALGQVKAKVEVCKDESVDLEEFRSYLEKRFDFEQVTVKKFRTWAERRQFNREMKRKQAESERPILPANQKLITLSVQDAP
notes: Dimer of 54 kDa; also called human HBD; human HBD-His6; not shown: His6, C-terminal, kept
For B1, the “stoichiometry N” value in series [2] was 2.

For the origin of these results see PMC3388087 (PLoS ONE, 2012).
